The chains are these.
B1: TPR 5TU (parent)
chain: GGAUCUUCUCGAUCUAACAAAAAAGACAAAUCUGCCACAAAGCUUGAGAGCAUCUUCGGAUGCAGAGGCGGCAGCCUUCGGUGGCGCGAUAGCGCCAACGUUCUCAACUAUGACACGCAAAACGCGUGCUCCGUUGAAUGGAGUUUAUCAUG

Variants at the floor of the assay were thinned out.

The variants in the data set derive from B1. In words: polymerase ribozyme fitness, log enrichment relative to wild type (log ratio); higher = more active; in vitro selection for triplet polymerase activity. A digest of the protocol:
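Each subunit of a heterodimeric triplet polymerase ribozyme was mutagenized into a library by PCR, transcribed, and subjected to one round of in vitro selection, run in triplicate. Libraries were annealed with a biotinylated primer, the partner subunit and triplets, incubated frozen at −7 °C, and extended constructs were gel-excised, captured on streptavidin beads and recovered by RT-PCR. Input and output libraries were sequenced on Illumina, keeping genotypes with ≥10 input reads and ≥1 read per output. Fitness is log base 2 of genotype enrichment divided by wild-type enrichment, from inverse-variance-weighted replicate averages.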
For the variant C35U G50A C87G G124A, the “polymerase ribozyme fitness (log ratio)” value was -3.99.
Regarding C103A G117U, the “polymerase ribozyme fitness (log ratio)” value is -0.489.
C5A C85G C105U: the “polymerase ribozyme fitness (log ratio)” value was -1.21.
Consider A16C C32U, for which the “polymerase ribozyme fitness (log ratio)” value was -2.43.
As for A52C C96A, the “polymerase ribozyme fitness (log ratio)” value was -1.55.
Take A29G A41C A60U C85G G86U C116G G133C A142G A150G: the “polymerase ribozyme fitness (log ratio)” value is at most -4.2.
Turning to A40C C87A, the “polymerase ribozyme fitness (log ratio)” value is -3.55.
As for A12U U82C G86C, the “polymerase ribozyme fitness (log ratio)” value is at most -4.2.
The figure for U6A U56A U82G C103U is -1.06; for U53A U56A G152A it is -4; for C69G C87A A91C G126A it is at most -4.2.
As for A22U C38U C57U G94C G126U, the “polymerase ribozyme fitness (log ratio)” value was -0.0445.
Take A26U C51U C72U A73U C85A C99G G100C U111G: the “polymerase ribozyme fitness (log ratio)” value is at most -4.2.
Consider U90A, for which the “polymerase ribozyme fitness (log ratio)” value is -4.07.
Under C14U A16C C57G G83U C85U A107G G140C A142C stands at most -4.2.
Under C32U A49U stands -4.14; under C57G G68U G94U C116G, at most -4.2; under U44A U53C G86A A147C, at most -4.2.
With C72U G86C C105A C114U G140U, the “polymerase ribozyme fitness (log ratio)” value is at most -4.2.
In the case of C51U A52U G74C A113C C131A, the “polymerase ribozyme fitness (log ratio)” value is at most -4.2.
The figure for C85G U135C A138C is at most -4.2; for G94A G141U it is 0.898; for A52U G86U U104C it is -3.56.
As to C5G C14G G48C C57A A73C C87U C118U A121G C123U G140C, the “polymerase ribozyme fitness (log ratio)” value was at most -4.2.
The figure for C87A G124U is at most -4.2; for U45G G152A it is -1.18.
As for C35G G59A C85A A106G G126U, the “polymerase ribozyme fitness (log ratio)” value was at most -4.2.
As to A19G A20G A60G C76A A89U C93A, the “polymerase ribozyme fitness (log ratio)” value was at most -4.2.
On to C69U C96G C125U, for which the “polymerase ribozyme fitness (log ratio)” value was -1.78.
Take G48U U55A C99U: the “polymerase ribozyme fitness (log ratio)” value was -2.23.
Consider A17G G83U A107U U135C, for which the “polymerase ribozyme fitness (log ratio)” value is at most -4.2.
Turning to A47U A60C C125U, the “polymerase ribozyme fitness (log ratio)” value is -2.64.
Turning to U82G, the “polymerase ribozyme fitness (log ratio)” value was found to be 0.17.
For U4G A17U C51U A52U C57A C75G G83U G117U G136U, the “polymerase ribozyme fitness (log ratio)” value was at most -4.2.
Consider U56G C63U C93G, for which the “polymerase ribozyme fitness (log ratio)” value was -3.47.
On to U56C U109A, for which the “polymerase ribozyme fitness (log ratio)” value is -1.87.
For C43U A47U G59A C75A C93U G126C G133A, the “polymerase ribozyme fitness (log ratio)” value was at most -4.2.
For C76U U82C A89G, the “polymerase ribozyme fitness (log ratio)” value was -1.3.
Under C5G U6A C32G U77A C87G C114U stands at most -4.2.
For the variant A37C C43U A73C U77C C93U C116A U135G G136U, the “polymerase ribozyme fitness (log ratio)” value is at most -4.2.
Take A37C C93A: the “polymerase ribozyme fitness (log ratio)” value is -2.8.
As to C85U C93G A150G, the “polymerase ribozyme fitness (log ratio)” value is at most -4.2.
For the variant C72A G81U G83C C93U, the “polymerase ribozyme fitness (log ratio)” value was at most -4.2.
As to G94C A97U G136C, the “polymerase ribozyme fitness (log ratio)” value is -3.35.
In the case of C18U A22U C43U C95U U101G G136A A138U, the “polymerase ribozyme fitness (log ratio)” value is at most -4.2.
The figure for U6C C10A A24U A110G is at most -4.2.
With C14A A23C U56A C75G U77A C93U C95G U102C, the “polymerase ribozyme fitness (log ratio)” value was at most -4.2.
The figure for U9G C87U is -4.11; for A23U A30G A41C A47G U53G U56A C75A C93U C108G G133C G136A it is at most -4.2; for A29U G59C U82A C93U it is at most -4.2.
With C18A A21U A52G C54U G92A C103A, the “polymerase ribozyme fitness (log ratio)” value is at most -4.2.
Turning to G67A C85G A106G C129U G140C G143A, the “polymerase ribozyme fitness (log ratio)” value was at most -4.2.
The figure for U6G C93G is -3.18.
Regarding U15C A21C G48C C93U U146G, the “polymerase ribozyme fitness (log ratio)” value was -0.835.
Take A52U C96A: the “polymerase ribozyme fitness (log ratio)” value is -2.92.
In the case of A40U U53A, the “polymerase ribozyme fitness (log ratio)” value is -0.83.
For the variant A17C A47U G58A G83U G94A G126U, the “polymerase ribozyme fitness (log ratio)” value was at most -4.2.
For the variant A52C C54A A89G G117A, the “polymerase ribozyme fitness (log ratio)” value is -3.55.
U53A U135A: the “polymerase ribozyme fitness (log ratio)” value is -1.55.
The figure for G46A C96U U101A is -2.59.
As for C93A A138U, the “polymerase ribozyme fitness (log ratio)” value is -4.18.
On to U31A U56A G86A A97C C105A U145C, for which the “polymerase ribozyme fitness (log ratio)” value is at most -4.2.
For the variant U9G C27G A28C A47U G70A A91C, the “polymerase ribozyme fitness (log ratio)” value is at most -4.2.
For the variant G83U A113U, the “polymerase ribozyme fitness (log ratio)” value is -2.14.
The figure for G11A A21G A23C C54U G70C C76A G83U is at most -4.2; for A21U U78G it is at most -4.2.
Take A21U U55A C85U U148A: the “polymerase ribozyme fitness (log ratio)” value is -4.07.
For the variant A40C C93A, the “polymerase ribozyme fitness (log ratio)” value was -1.96.
On to C76U G94A, for which the “polymerase ribozyme fitness (log ratio)” value is 1.11.
Take A26U C51A C54A C57U U90C C93G: the “polymerase ribozyme fitness (log ratio)” value is at most -4.2.
In the case of G59U C87U C108U C125A, the “polymerase ribozyme fitness (log ratio)” value was -3.4.
With U45A G92A U127C G128A U130G, the “polymerase ribozyme fitness (log ratio)” value is -4.06.
Under A60G U134G G143U stands -3.39; under C54A A91U, at most -4.2.
For C72G G81U C87A C95U U104A, the “polymerase ribozyme fitness (log ratio)” value was at most -4.2.
Consider C51G U56G C93U, for which the “polymerase ribozyme fitness (log ratio)” value was -3.95.
As for U77A G88A, the “polymerase ribozyme fitness (log ratio)” value is at most -4.2.
A12U C18G G92C: the “polymerase ribozyme fitness (log ratio)” value is -2.01.
The figure for G46A G50C U56A G83U A147C is at most -4.2.
A37U G83C A91C A98G G124U: the “polymerase ribozyme fitness (log ratio)” value is at most -4.2.
For A26U C85U C105U A142C, the “polymerase ribozyme fitness (log ratio)” value is -3.69.
The figure for C38U U56A A147C is -0.21; for U61C G94A G141A C149A it is at most -4.2.

For the origin of these results see the RNAGym collection of RNA variant scans (doi:10.1073/pnas.2313332121).
